According to patent US9889184B2 (priority 2008, dated 2018):
Where a chain is given by its changes, count along the chain named. No end group written: not given here.

How the values were obtained:
Fusarium graminearum = format: cell-based; details: for fungicidal activity in combination with NaD1: F. graminearum, conditions of the fungal bioassay; for fungicidal activity of the proteinase inhibitor on its own: not combined with NaD1, F. graminearum; for effect on hyphal growth: concentrations up to 18.5 uM in the absence of NaD1
[1] = test system: Fusarium oxysporum f. sp. vasinfectum (Fov); assay: Growth inhibition of Fov by NaD1 (microtitre OD595); format: cell-based
Experimental: Lyophilized NaD1 (500 μg) was dissolved in 400 μL of stock buffer (200 mM Tris-HCl pH 8.0, 2 mM EDTA, 6 M guanidine-HCl, 0.02% [v/v] Tween-20). Reduction buffer (stock buffer with 15 mM dithiothreitol [DTT]) was added (44 μL) followed by a 4.5 h incubation at 40° C. The reaction mixture was cooled to RT before iodoacetic acid (0.5 M in 1 M NaOH, 55 μL) was added and the incubation continued in the dark for 30 min at RT. A Nanosep omega (Registered) spin column (3K molecular weight cut off, PALL Life Sciences) was used to remove salts, DTT and iodoacetic acid and the protein concentration was determined using the BCA protein assay (Pierce). The effect of reduced and alkylated NaD1 (NaD1R&A) on the growth of Fusarium oxysporum (Fov) was measured as described herein.
Antifungal activity against Fusarium oxysporum f. sp. vasinfectum (Fov, Australian isolate VCG01111 isolated from cotton; from Wayne O'Neill, Farming Systems Institute, DPI, Queensland, Australia), Thielaviopsis basicola (gift from David Nehl, NSW DPI, Narrabri, Australia), Verticillium dahliae (from Helen McFadden, CSIRO Plant Industry, Black Mountain, Australia), Leptosphaeria maculans (from Barbara Howlett, University of Melbourne, Victoria, Australia) and Aspergillus nidulans (from Michael Hynes, University of Melbourne) was assessed essentially as described in Broekaert et al, 1990. Spores were isolated from sporulating cultures growing in either half-strength potato dextrose broth (PDB) (Fov and T. basicola), Czapeck-Dox Broth (V. dahliae) (Difco Laboratories) or 10% (v/v) clarified V8 medium (L. maculans and A. nidulans) by filtration through sterile muslin. Spore concentrations were determined using a hemocytometer and adjusted to 5×10^4 spores/mL in the appropriate growth medium. Spore suspensions (80 μL) were added to the wells of sterile 96-well flat-bottomed microtitre plates along with 20 μL of filter-sterilized (0.22 μm syringe filter; Millipore) NaD1, or water to give final protein concentrations of 0-10 μM. The plates were shaken briefly and placed in the dark at 25° C. without shaking until the optical density at 595 nm of the water control reached approximately 0.2 (24-72 h depending on growth rate). Hyphal growth was estimated by measuring the optical density at 595 nm using a microtitre plate reader (SpectraMax Pro M2; Molecular Devices). Each test was performed in quadruplicate.

Fov hyphae = assay: Uptake of NaD1 into hyphae (immunogold EM, bimane fluorescence, immunoblot); format: cell-based, Fusarium oxysporum f. sp. vasinfectum; details: fluorescence microscopy, live hyphae
Experimental: Fov hyphae were grown as described above prior to the addition of NaD1 (10 μM final concentration) to 1 mL of the culture. Samples (100 μL) were collected after 0, 5, 10, 30, 60, 90 and 120 min. Hyphae were collected by centrifugation (10 min, 10,000×g) and the supernatant was stored at −20° C. for analysis. Hyphae were washed (2×10 min) with KCl (0.6 M) to remove any ionically bound protein before they were resuspended in 50 mM CAPS buffer (pH 10.0) containing 10 mM DTT for 20 min. Hyphae were collected by centrifugation and the supernatant, containing cell wall proteins, was collected for analysis. The pellet (containing cells) was resuspended in water and the cells were lysed using glass beads (Sigma, 60 mg) and vortexing (3×10 min). Cellular debris was removed by centrifugation (16,000×g, 10 min) and the supernatant collected for analysis. All samples were then analyzed by SDS-PAGE and immunoblotting.
Fov hyphae were grown for 18 h in half-strength PDB (5 mL) with vigorous shaking at 25° C. from a starting spore suspension of 5×10^4/mL. Hyphae were then treated with 2 μM NaD1 or an equivalent volume of water for 2 h at RT with gentle agitation, and were washed twice in 0.6 M KCl and three times in PBS before fixation in 4% (w/v) paraformaldehyde in PBS for 1 h at 4° C. Hyphae were again washed three times in PBS before dehydration in a standard ethanol series (15 min each, 50%, 70% and 90% ethanol, 3×15 min 100% ethanol). Hyphae were then infiltrated with LR White resin (ProSciTech) for 1 h at RT, followed by 18 h at 4° C., 1 h at RT and 24 h at 60° C. Fresh LR White resin was used at each step. Ultrathin sections were cut and placed on Formvar coated gold grids.
Grids were blocked with PBS containing 8% (w/v) BSA and 1% (v/v) Triton X-100 for 1 h and labeled with α-NaD1 antibodies (2 μg/mL in blocking buffer) for 1 h. Grids were washed in blocking buffer (3×10 min) and labeled with 15 nm gold particle labeled goat α-rabbit IgG antibodies (ProSciTech diluted 1 in 20 for 1 h. Grids were washed again in blocking solution (3×10 min) followed by water (15 min) before being air-dried. A JEOL JEM2010HC x e80 KV transmission electron microscope was used to examine labeled grids. Pictures were taken on Kodak EM film (ProSciTech) and developed in a dark room before scanning on a Hewlett Packard Scanjet 5P scanner.
Hyphae grown for 18 h as described were treated with NaD1-bimane (2 μM) for between 10 min and 6 h. Hyphae were then visualized by fluorescence microscopy using an MWU filter (excitation wavelength of 330-385 nm).

[2] = test system: Fusarium oxysporum species; details: cited from earlier work
papain = biological target: T1, papain (Carica papaya, UniProt P00784); assay: Cysteine proteinase inhibitory activity, ZFR-MCA substrate; format: biochemical; details: bacterially expressed cystatin, FIG. 1D
T1 construct: purchased Sigma
T1 sequence (P00784 134-345): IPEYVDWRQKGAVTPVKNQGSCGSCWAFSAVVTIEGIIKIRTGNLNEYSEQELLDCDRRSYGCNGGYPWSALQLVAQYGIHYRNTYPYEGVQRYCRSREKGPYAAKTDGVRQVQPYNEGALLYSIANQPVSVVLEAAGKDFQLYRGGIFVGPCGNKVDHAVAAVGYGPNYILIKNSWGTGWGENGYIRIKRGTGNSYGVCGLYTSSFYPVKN
Experimental: (§1) The cysteine proteinase inhibitory activity of bacterially expressed NaCys1, NaCys3 and NaCys4 was determined using the enzymes papain and cathepsin L (Sigma). The assay mixtures (final volume 250 uL) contained papain or cathepsin L (50 nM final concentration), 100 uL of ZFR-MCA substrate (0.2 mM, Bachem, Melo et al., 2001), 100 uL of reaction buffer (0.2 M sodium acetate, 4 mM EDTA, 8 mM DTT, pH 5.5) and 50 uL of cystatin (for 0-20 uM final concentration). Released fluorescence was measured at 460 nm (excitation at 340 nm) after a 10 or 50 min incubation for papain and cathepsin L, respectively, at 37° C.

cathepsin L = biological target: T2, cathepsin L (Homo sapiens, UniProt P07711); assay: as above; format: biochemical; details: bacterially expressed cystatin, FIG. 1E
T2 construct: purchased Sigma
Experimental: as §1

T2 sequence (P07711 114-333, species assumed): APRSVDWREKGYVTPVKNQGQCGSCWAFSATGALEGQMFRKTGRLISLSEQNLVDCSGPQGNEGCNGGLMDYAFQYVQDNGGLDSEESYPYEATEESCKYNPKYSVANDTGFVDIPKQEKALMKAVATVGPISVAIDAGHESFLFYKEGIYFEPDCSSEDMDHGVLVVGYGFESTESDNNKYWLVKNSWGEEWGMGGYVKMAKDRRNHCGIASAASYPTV

Molecule: CC(C)C[C@H](NC(=O)[C@H]1O[C@@H]1C(=O)O)C(=O)NCCCCN=C(N)N [E64, reference compound]
- fungicidal activity in combination with NaD1 (Fusarium graminearum): no fungicidal activity
- fungicidal activity of the proteinase inhibitor on its own (Fusarium graminearum): no fungicidal activity

Molecule: NaD1 labeled with FITC: NaD1 labeled with FITC via reactive amine groups (RECKTESNTFPGICITKPPCRKACISEKFTDGHCSKILRRCLCTKPC; ends and bridges not checked; also: FITC label via reactive amine groups (position not given here); UniProt Q8GTM0 26-72, looked up)
- antifungal activity of fluorophore-labeled NaD1 [1]: not biologically active

Molecule: NaD1-bimane: NaD1 labeled with the fluorophore bimane amine at carboxyl residues (RECKTESNTFPGICITKPPCRKACISEKFTDGHCSKILRRCLCTKPC; ends and bridges not checked; also: bimane amine fluorophore label at carboxyl residues (position not given here); UniProt Q8GTM0 26-72, looked up)
- antifungal activity of fluorophore-labeled NaD1 [1]: retained full antifungal activity
- time at which internalization was observed (Fov hyphae): 20 to 30 min

Molecule: PhD1A: defensin isolated from petunia (Petunia hybrida) flowers (SEQ ID NO:24) (ATCKAECPTWDGICINKGPCVKCCKAQPEKFTDGHCSKILRRCLCTKPC; Petunia hybrida (PhD1A))
- activity in inhibiting Fusarium oxysporum species [2]: active in inhibiting

Molecule: Tomdef2: defensin isolated from tomato flowers (SEQ ID NO:22) (QQICKAPSQTFPGLCFMDSSCRKYCIKEKFTGGHCSKLQRKCLCTKPC; Solanum lycopersicum var. cerasiforme (Tomdef2))
- activity in inhibiting Fusarium oxysporum species [2]: active in inhibiting

B1: chicken egg white cystatin: cysteine proteinase inhibitor (12.7 kDa), Sigma C8917 (protein, UniProt P01038 24-139, looked up)
Cystatin: SEDRSRLLGAPVPVDENDEGLQRALQFAMAEYNRASNDKYSSRVVRVISAKRQLVSGIKYILQVEIGRTTCPKSSGDLQSCEFHDEPEMAKYTTCTFVVYSIPWLNQIKLLESKCQ
- fungicidal activity in combination with NaD1 (Fusarium graminearum): no fungicidal activity
- fungicidal activity of the proteinase inhibitor on its own (Fusarium graminearum): no fungicidal activity

B2: PhD2: plant defensin from Petunia hybrida, accession Q8H6Q0 (protein)
chain: MARSICFFAVAILALMLFAAYETEAGTCKAECPTWEGICINKAPCVKCCKAQPEKFTDGHCSKILRRCLCTKPCATEEATATLANEVKTMAEALVEEDMME
modifications: Petunia hybrida (PhD2Full length)
- activity in inhibiting Fusarium oxysporum species [2]: active in inhibiting

B3: NaCys1: cystatin from Nicotiana alata, bacterially expressed (SEQ ID NO:2) (protein)
chain: MATLGGIREAGGSENSLEINDLARFAVDEHNKKQNALLEFGKVVNVKEQVVAGTMYYITLEATEGGKKKAYEAKVWVKPWQNFKQLEDFKLIGDAASA
modifications: Nicotiana alata (NaCys1)
- effect on hyphal growth (Fusarium graminearum): no effect on hyphal growth
- inhibition of the cysteine proteinase papain (papain): strong inhibitors
- inhibition of Cathepsin L (cathepsin L): better inhibitors of Cathepsin L than NaCys4

B4: NaCys3: cystatin from Nicotiana alata, bacterially expressed (SEQ ID NO:6) (protein)
chain: B3 chain with T3N
modifications: Nicotiana alata (NaCys3)
- effect on hyphal growth (Fusarium graminearum): no effect on hyphal growth
- inhibition of the cysteine proteinase papain (papain): strong inhibitors
- inhibition of Cathepsin L (cathepsin L): better inhibitors of Cathepsin L than NaCys4

B5: NaCys4: cystatin from Nicotiana alata (SEQ ID NO:8), tryptophan to arginine substitution at position 80 (protein)
chain: B3 chain with T3N, W80R
modifications: Nicotiana alata (NaCys4)
- inhibition of the cysteine proteinase papain (papain): relatively poor inhibitor

B6: Soybean trypsin inhibitor Type II-S: serine proteinase inhibitor (21 kDa), Sigma T9128 (protein, UniProt P01070 25-205, looked up)
Trypsin inhibitor A: DFVLDNEGNPLENGGTYYILSDITAFGGIRAAPTGNERCPLTVVQSRNELDKGIGTIISSPYRIRFIAEGHPLSLKFDSFAVIMLCVGIPTEWSVVEDLPEGPAVKIGENKDAMDGWFRLERVSDDEFNNYKLVFCPQQAEDDKCGDIGISIDHDDGTRRLVVSKNKPLVVQFQKLDKESL
- fungicidal activity in combination with NaD1 (Fusarium graminearum): no fungicidal activity
- fungicidal activity of the proteinase inhibitor on its own (Fusarium graminearum): no fungicidal activity
